# B1: AtSEP3 (…3), wild type, in pGADT7 [Arabidopsis thaliana] / AtAP1 (APETALA1), in pGBKT7 [Arabidopsis thaliana] (parent complex)
# chain 1: MGRGRVELKRIENKINRQVTFAKRRNGLLKKAYELSVLCDAEVALIIFSNRGKLYEFCSSSSMLRTLERYQKCNYGAPEPNVPSREALAVELSSQQEYLKLKERYDALQRTQRNLLGEDLGPLSTKELESLERQLDSSLKQIRALRTQFMLDQLNDLQSKERMLTETNKTLRLRLADGYQMPLQLNPNQEEVDHYGRHHHQQQQHSQAFFQPLECEPILQIGYQGQQDGMGAGPSVNNYMLGWLPYDTNSI
# chain 2: not shown
# Variants of: B1
# Assay: yeast two-hybrid β-galactosidase activity assay; parent: 26; read off a plot
row,response,Variant
1,~15 β-galactosidase units,chain 1 L108A
2,~16 β-galactosidase units,chain 1 L99A
3,~8.7 β-galactosidase units,chain 1 L120A
4,~11 β-galactosidase units,chain 1 L116A
5,~13 β-galactosidase units,chain 1 L115A
6,~14 β-galactosidase units,chain 1 L101A

# Variants of: B1
# Assay: yeast two-hybrid β-galactosidase activity assay; parent: 51; read off a plot
row,response,Variant
1,~31 β-galactosidase units,chain 1 L99A
2,~24 β-galactosidase units,"chain 1 L99A, chain 1 L101A"
3,~15 β-galactosidase units,"chain 1 L99A, chain 1 L101A, chain 1 L108A, chain 1 L115A, chain 1 L116A"
4,~21 β-galactosidase units,"chain 1 L99A, chain 1 L101A, chain 1 L108A"
5,~25 β-galactosidase units,"chain 1 L99A, chain 1 L101A, chain 1 L108A, chain 1 L115A"
